Reference: patent US20090307790

Experiments:
[1] = biological target: Rac1, produced as GST-fusion protein in E. coli BL21 [GST: P08515]
[2] = biological target: cdc42, produced as GST-fusion protein in E. coli BL21 [GST: P08515]
[3] = biological target: RhoA, produced as GST-fusion protein in E. coli BL21 [GST: P08515]

B1: catalytic domain of wild type Tagap1, produced as GST-fusion protein in E. coli BL21 (protein)
chain: QPLSIICGENDTLPRPIQDILTILCLKGPSTEGIFRKAASEKARKELKEGLNCGVSVNLKQLPVHLLAVVFKDFLRGIPLKLLSCDLFEDWMGALEKPTEEDRIEALKQVAGGLPRPNLLLLRHLLYVLHLISKNAEVNKMDSSNLAICIGPNMLTLKNDQSLSFQAQKDLNNKVKILVEFLIDNCFEIF
- GTPase activity of Rac1 (in vitro GAP assay) [1]: hardly (Rac1) stimulated
- GTPase activity of Cdc42 (in vitro GAP assay) [2]: only mildly (Cdc42) ... stimulated
- GTPase activity of RhoA (GAP-activity assay, FIG. 2e) [3]: Tagap1 enhances the GTPase activity of RhoA
- GTPase activity of RhoA (in vitro GAP assay) [3]: the GTPase activity of RhoA was strongly enhanced by the GAP domain of Tagap1
